# T1: IFF01540
# T1 chain: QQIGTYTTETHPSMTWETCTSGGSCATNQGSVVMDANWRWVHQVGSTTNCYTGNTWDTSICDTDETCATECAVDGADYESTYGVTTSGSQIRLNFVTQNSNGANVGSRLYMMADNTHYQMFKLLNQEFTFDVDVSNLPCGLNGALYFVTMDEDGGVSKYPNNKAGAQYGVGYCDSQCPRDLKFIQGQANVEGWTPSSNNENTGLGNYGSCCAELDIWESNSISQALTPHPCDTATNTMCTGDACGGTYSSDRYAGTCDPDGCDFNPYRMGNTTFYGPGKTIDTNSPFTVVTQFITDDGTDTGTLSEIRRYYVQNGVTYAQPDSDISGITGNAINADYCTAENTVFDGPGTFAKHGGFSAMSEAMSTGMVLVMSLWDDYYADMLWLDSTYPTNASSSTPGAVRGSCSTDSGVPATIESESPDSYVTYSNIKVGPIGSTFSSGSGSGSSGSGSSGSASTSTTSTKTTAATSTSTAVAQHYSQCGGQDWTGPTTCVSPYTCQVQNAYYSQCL
# T2: IFF01073 produced in E. coli without glycosylation
# T2 chain: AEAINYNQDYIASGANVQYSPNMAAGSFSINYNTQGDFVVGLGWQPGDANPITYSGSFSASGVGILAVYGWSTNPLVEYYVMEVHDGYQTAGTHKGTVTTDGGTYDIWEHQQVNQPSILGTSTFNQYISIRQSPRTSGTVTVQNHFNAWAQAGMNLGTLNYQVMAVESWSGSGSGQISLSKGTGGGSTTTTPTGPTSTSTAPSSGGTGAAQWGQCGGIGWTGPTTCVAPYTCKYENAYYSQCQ
# T3: IFF01509
# T3 chain: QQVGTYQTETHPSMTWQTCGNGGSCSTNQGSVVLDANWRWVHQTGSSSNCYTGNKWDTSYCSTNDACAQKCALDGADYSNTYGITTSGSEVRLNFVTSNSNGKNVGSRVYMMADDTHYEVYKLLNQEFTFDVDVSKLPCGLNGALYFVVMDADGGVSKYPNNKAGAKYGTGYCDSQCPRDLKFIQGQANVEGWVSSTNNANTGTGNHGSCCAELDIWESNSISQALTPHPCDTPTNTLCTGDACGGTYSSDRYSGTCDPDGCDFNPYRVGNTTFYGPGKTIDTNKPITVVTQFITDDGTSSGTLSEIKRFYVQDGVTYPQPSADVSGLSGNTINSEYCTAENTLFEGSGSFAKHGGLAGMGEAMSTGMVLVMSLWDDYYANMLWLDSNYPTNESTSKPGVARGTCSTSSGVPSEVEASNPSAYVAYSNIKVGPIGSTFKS
# T4: IFF05588
# T4 chain: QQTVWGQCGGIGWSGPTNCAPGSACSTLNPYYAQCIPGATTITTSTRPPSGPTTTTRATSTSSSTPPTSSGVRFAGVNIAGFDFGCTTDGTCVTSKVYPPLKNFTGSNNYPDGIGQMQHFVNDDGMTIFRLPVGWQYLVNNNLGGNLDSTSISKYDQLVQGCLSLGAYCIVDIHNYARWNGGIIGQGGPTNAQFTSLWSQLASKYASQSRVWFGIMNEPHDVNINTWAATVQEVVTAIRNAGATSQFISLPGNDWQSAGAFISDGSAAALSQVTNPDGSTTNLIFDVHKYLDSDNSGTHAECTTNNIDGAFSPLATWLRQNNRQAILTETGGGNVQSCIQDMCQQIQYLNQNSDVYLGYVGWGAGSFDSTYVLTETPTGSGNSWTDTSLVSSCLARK
# T5: IFF07399
# T5 chain: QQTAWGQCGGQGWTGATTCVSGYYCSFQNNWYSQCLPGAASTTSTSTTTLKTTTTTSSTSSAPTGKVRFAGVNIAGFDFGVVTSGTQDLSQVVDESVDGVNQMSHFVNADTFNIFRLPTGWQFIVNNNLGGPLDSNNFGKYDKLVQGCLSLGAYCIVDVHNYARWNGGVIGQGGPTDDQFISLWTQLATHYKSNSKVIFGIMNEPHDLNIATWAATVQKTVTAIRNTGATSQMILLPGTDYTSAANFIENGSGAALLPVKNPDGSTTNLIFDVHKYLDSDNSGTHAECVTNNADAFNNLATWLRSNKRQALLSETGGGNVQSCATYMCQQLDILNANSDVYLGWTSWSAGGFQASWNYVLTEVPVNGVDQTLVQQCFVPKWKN
# T6: IFF01073 produced in T. reesei with glycosylation
# T6 chain: T2 chain
# B1: IFF05497 (protein)
# chain: LAILDKPVIQPNFPGNGLASLGQGLMDHLAPTHSTWDDWGAGWIPQDCKSLVEGAGLSASDVIPFNIHYDDCAQTWTFCRHKDSPLSEITILDIFGRLPVRMRSFVRHLVFIPGAKSAGSNGDNVLLRGDIDVTVFAHEIGHSLDSHAFDPSYGVPFSTGNVWISNYNLDSAVPDPYAQTSQQENFAQQTVISLYDKVVPGGIGTIQPNWQAIFHQYATLEGYIGDVIIPGGTCTHRLTDSPPVQMSSLAKGRRALGPKPNVALSPEVEEIEAIPMKSSITMTSFDEAGKPNGTYVINL
# Key:
# IFF01540 = target: T1, IFF01540
# [1] = target: T2, IFF01073 produced in E. coli without …
# IFF01509 = target: T3, IFF01509
# IFF05588 = target: T4, IFF05588
# IFF07399 = target: T5, IFF07399
# [2] = target: T6, IFF01073 produced in T. reesei with …
protein,measurement,setting,value
B1,Mobility change (SDS-PAGE),IFF08955v3,yes
same,Mobility change (SDS-PAGE),IFF06679,yes
same,Mobility change (SDS-PAGE),IFF01540,yes
same,Gel mobility change (SDS-PAGE),[1],no
same,Mobility change (SDS-PAGE),IFF01509,no
same,Mobility change (SDS-PAGE),IFF03904,yes
same,Mobility change (SDS-PAGE),IFF08955,no
same,Mobility change (SDS-PAGE),IFF05588,yes
same,"Relative late peak area (centered, scaled, averaged over 5, 10 and 15 min)",IFF05588,-0.77
same,"Relative late peak area (centered, scaled, averaged over doses, 24 h; sample diluted 1-fold)",IFF05588,-0.28
same,Gel mobility change (SDS-PAGE),IFF07399,yes
same,Mobility change (SDS-PAGE),IFF07399,yes
same,Gel mobility change (SDS-PAGE),[2],yes
same,Mobility change (SDS-PAGE),[2],yes
